Source: patent US20250000992A1 (Eli Lilly, published 2025)
Changes are numbered by the printed parent chain.

Columns and labels:
[1] = target: Human TfR on HEK293 cells (human, UniProt P02786 1-760); test: cell-based or functional assay
[2] = target: T1, Sortilin receptor on HEK293 cells (UniProt Q99523 78-831, limits assumed); test: told with the HEK293 cathepsin D assay (FIG. 5); no direct binding assay described
T1 construct: whole, on cells

[3] = target: T2, Cynomolgus TfR1 ECD, His tagged (cynomolgus, UniProt H9EXL1 89-760 (rhesus entry)); test: SPR, Biacore T200, 25 C, His-tagged ECD amine coupled to CM3 chip, construct injected, 1:1 fit
T2 construct: extracellular domain; Purchased from SYNGENE; also called cyno TfR1; cyno Tfr1; not shown: His tag
Protocol: (§1) To determine the binding kinetics and affinity of H09-PGRN and BACDE to human TfR1 (hTfR1), human TfR2 (hTfR2) and cynomolgus TfR1, binding affinities and kinetics for antibody to antigen were determined using a BIACORE® T200 instrument. The binding kinetics and affinity of antibodies H09-PGRN and BACDE to human TfR1 ECD were determined using surface plasmon resonance biosensor such as BIAcore® T200 (GE Healthcare, Piscataway, N.J.). Briefly described, BIAcore® T200 instrument is used to measure the binding kinetics for Sandwich Ex. 1 (H09-PGRN-C90.43) and Sandwich Ex. 2 (H09-PGRNΔpGF-C90.43 to hTfR1, hTfR2 and cyno Tfr1 via surface plasmon resonance (SPR) at 25° C. Samples are dissolved in 1×HBS-EP+running buffer (Teknova cat. #H802) and His tagged ECD of the hTfR1, hTfR2, and cyno TfR was amine coupled to the Cytiva CM3 Series S sensor chip.
(§2) Binding is evaluated using multiple analytical cycles. Each cycle is performed at 25° C. at a flow rate of 50 μl/min for ligand association and dissociation. Each kinetic cycle consists of the following steps: injection of the Sandwich Ex. 1 (H09-PGRN-C90.43) and Sandwich Ex. 2 (H09-PGRNΔpGF-C90.43) over all four flow cells (starting at 125 nM and using two-fold serial dilutions for each cycle) for 240 seconds and followed by 900 seconds for dissociation phase, and regeneration using 3 M MgCl2 […] over a 30 s contact time. Association (i e., kₒₙ) and dissociation rates (i.e., Koff) for each are evaluated using standard double referencing and fit to “1:1 (Langmuir) binding” model in the BiaEvaluation software in batch mode. The affinity (KD) is calculated from the binding kinetics according to the relationship K)=Koff/Kon.

[4] = target: T3, Human TfR1 ECD, hexa-histidine tagged (human, UniProt P02786 89-760); test: as above
T3 construct: extracellular domain; Made in 293 cells, purified by IMAC and SEC; amine coupled to a CM3 chip; also called hTfR1; not shown: hexa-histidine tag
Protocol: as §1, §2

[5] = target: T1, Sortilin receptor on HEK293 cells; test: cell-based or functional assay

B1: Sandwich Ex. 4 (H3.03-PGRN-C90.43) (Fab)
heavy: EVQLVESGGGLVKPGGSLRLSCVASGFTFSSYSMNWVRQAPGKGLEWVSSISRSSSYIYYADSVKGRFTISRDNAKNSLYLQMNSLRAEDTAVYYCARIHGYSNSDAFDKWGQGTLVTVSSASTKGPCVFPLAPSSKSTSGGTAALGCLVKDYFPEPVTVSWNSGALTSGVHTFPAVLQSSGLYSLSSVVTVPSSSLGTQTYICNVNHKPSNTKVDKKVEPKSCDKTHTGGGGQGGGGQGGGGQTRCPDGQFCPVACCLDPGGASYSCCRPLLDKWPTTLSRHLGGPCQVDAHCSAGHSCIFTVSGTSSCCPFPEAVACGDGHHCCPRGFHCSADGRSCFQRSGNNSVGAIQCPDSQFECPDFSTCCVMVDGSWGCCPMPQASCCEDRVHCCPHGAFCDLVHTRCITPTGTHPLAKKLPAQRTNRAVALSSSVMCPDARSRCPDGSTCCELPSGKYGCCPMPNATCCSDHLHCCPQDTVCDLIQSKCLSKENATTDLLTKLPAHTVGDVKCDMEVSCPDGYTCCRLQSGAWGCCPFTQAVCCEDHIHCCPAGFTCDTQKGTCEQGPHQVPWMEKAPAHLSLPDPQALKRDVPCDNVSSCPSSDTCCQLTSGEWGCCPIPEAVCCSDHQHCCPQGYTCVAEGQCQRGSEIVAGLEKMPARRASLSHPRDIGCDQHTSCPVGQTCCPSLGGSWACCQLPHAVCCEDRQHCCPAGYTCNVKARSCEKEVVSAQPATFLARSPHVGVKDVECGEGHFCHDNQTCCRDNRQGWACCPYRQGVCCADRRHCCPAGFRCAARGTKCLRREAPRWDAPLRDPALRQLLGGGGQGGGGQGGGGQEVQLLESGGGLVQPGGSLRLSCAASGRYIDETAVAWFRQAPGKGREFVAGIGGGVDITYYADSVKGRFTISRDNSKNTLYLQMNSLRPEDTAVYYCGARPGRPLITSKVADLYPYWGQGTLVTVSSPP
light: DIQMTQSPSAMSASVGDRVTITCRASQGISNYLAWFQQKPGKVPKRLIYAASSLQSGVPSRFSGSGSGTEFTLTISSLQPEDFATYYCLQHNSYPRTFGQGTKVEIKRTVAAPSVFIFPPSDEQLKSGTASVVCLLNNFYPREAKVQWKVDNALQSGNSQESVTEQDSKDSTYSLSSTLTLSKADYEKHKVYACEVTHQGLSSPVTKSFNRGEC
notes: Fab fusion with the H3.03 Fab in place of 8D3
Q: How did the “Mature Cathepsin D levels in cell lysate (ELISA), HEK293 cells, 100 ng/mL, 24 hours” value [1] turn out when B1 was run?
A: The value was 66.

Q: Does B1 bind [2]?
A: Result: no binding

B2: Sandwich Ex. 2 (H09-PGRNΔpGF-C90.43) (Fab)
heavy: EVQLVESGGGLVKPGGSLRLSCVASGFTFSSYSMNWVRQAPGKGLEWVSSISSSSSYIYYADSVKGRFTISRDNAKNSLYLQMNSLRAEDTAVYYCARRHGYSNSDAFDNWGQGTLVTVSSASTKGPSVFPLAPSSKSTSGGTAALGCLVKDYFPEPVTVSWNSGALTSGVHTFPAVLQSSGLYSLSSVVTVPSSSLGTQTYICNVNHKPSNTKVDKKVEPKSCDKTGGGGQGGGGQGGGGQTPTGTHPLAKKLPAQRTNRAVALSSSVMCPDARSRCPDGSTCCELPSGKYGCCPMPNATCCSDHLHCCPQDTVCDLIQSKCLSKENATTDLLTKLPAHTVGDVKCDMEVSCPDGYTCCRLQSGAWGCCPFTQAVCCEDHIHCCPAGFTCDTQKGTCEQGPHQVPWMEKAPAHLSLPDPQALKRDVPCDNVSSCPSSDTCCQLTSGEWGCCPIPEAVCCSDHQHCCPQGYTCVAEGQCQRGSEIVAGLEKMPARRASLSHPRDIGCDQHTSCPVGQTCCPSLGGSWACCQLPHAVCCEDRQHCCPAGYTCNVKARSCEKEVVSAQPATFLARSPHVGVKDVECGEGHFCHDNQTCCRDNRQGWACCPYRQGVCCADRRHCCPAGFRCAARGTKCLRREAPRWDAPLRDPALRQLLGGGGQGGGGQGGGGQEVQLLESGGGLVQPGGSLRLSCAASGRYIDETAVAWFRQAPGKGREFVAGIGGGVDITYYADSVKGRFTISRDNSKNTLYLQMNSLRPEDTAVYYCGARPGRPLITSKVADLYPYWGQGTLVTVSSPP
light: B1 light with N31H, A34V, R96W
notes: also called H09 Fab-PGRNΔpGF-C90.43; H09-dPGF-C90.43
Q: Which results are given for B2?
A: Kd [3]: 13 nM; koff [3]: 0.00318 s⁻¹; kon [3]: 244000 M⁻¹ s⁻¹; Kd [4]: 7.12 nM; koff [4]: 0.0052 s⁻¹; kon [4]: 730000 M⁻¹ s⁻¹

B3: Sandwich Ex. 1 (H09-PGRN-C90.43) (Fab)
heavy: B1 heavy with R53S, I99R, K110N, C128S
light: B1 light with N31H, A34V, R96W
notes: also called H09 Fab-PGRN-C90.43
Q: Which results are given for B3?
A: Kd [3]: 9.7 nM; koff [3]: 0.0047 s⁻¹; kon [3]: 485000 M⁻¹ s⁻¹; Kd [4]: 7.29 nM; koff [4]: 0.00434 s⁻¹; kon [4]: 595000 M⁻¹ s⁻¹

B4: Sandwich Ex. 3 (8D3-PGRN-C90.43) (Fab)
heavy: EVQLVESGGGLVQPGNSLTLSCVASGFTFSNYGMHWIRQAPKKGLEWIAMIYYDSSKMNYADTVKGRFTISRDNSKNTLYLEMNSLRSEDTAMYYCAVPTSHYVVDVWGQGVSVTVSSASTKGPCVFPLAPSSKSTSGGTAALGCLVKDYFPEPVTVSWNSGALTSGVHTFPAVLQSSGLYSLSSVVTVPSSSLGTQTYICNVNHKPSNTKVDKKVEPKSCDKTHTGGGGQGGGGQGGGGQTRCPDGQFCPVACCLDPGGASYSCCRPLLDKWPTTLSRHLGGPCQVDAHCSAGHSCIFTVSGTSSCCPFPEAVACGDGHHCCPRGFHCSADGRSCFQRSGNNSVGAIQCPDSQFECPDFSTCCVMVDGSWGCCPMPQASCCEDRVHCCPHGAFCDLVHTRCITPTGTHPLAKKLPAQRTNRAVALSSSVMCPDARSRCPDGSTCCELPSGKYGCCPMPNATCCSDHLHCCPQDTVCDLIQSKCLSKENATTDLLTKLPAHTVGDVKCDMEVSCPDGYTCCRLQSGAWGCCPFTQAVCCEDHIHCCPAGFTCDTQKGTCEQGPHQVPWMEKAPAHLSLPDPQALKRDVPCDNVSSCPSSDTCCQLTSGEWGCCPIPEAVCCSDHQHCCPQGYTCVAEGQCQRGSEIVAGLEKMPARRASLSHPRDIGCDQHTSCPVGQTCCPSLGGSWACCQLPHAVCCEDRQHCCPAGYTCNVKARSCEKEVVSAQPATFLARSPHVGVKDVECGEGHFCHDNQTCCRDNRQGWACCPYRQGVCCADRRHCCPAGFRCAARGTKCLRREAPRWDAPLRDPALRQLLGGGGQGGGGQGGGGQEVQLLESGGGLVQPGGSLRLSCAASGRYIDETAVAWFRQAPGKGREFVAGIGGGVDITYYADSVKGRFTISRDNSKNTLYLQMNSLRPEDTAVYYCGARPGRPLITSKVADLYPYWGQGTLVTVSSPP
light: DIQMTQSPASLSASLEEIVTITCQASQDIGNWLAWYQQKPGKSPQLLIYGATSLADGVPSRFSGSRSGTQFSLKISRVQVEDIGIYYCLQAYNTPWTFGGGTKLELKRTVAAPSVFIFPPSDEQLKSGTASVVCLLNNFYPREAKVQWKVDNALQSGNSQESVTEQDSKDSTYSLSSTLTLSKADYEKHKVYACEVTHQGLSSPVTKSFNRGEC
notes: Fab fusion with the 8D3 Fab in place of H09
Q: How did the “Mature Cathepsin D levels in cell lysate (ELISA), HEK293 cells, 100 ng/mL, 24 hours” value [5] turn out when B4 was run?
A: The value was 100.

Q: Does B4 bind [2]?
A: Result: no binding
